# Source: patent US5834597
# Key:
# [1] = target: human CD3 antigen on T cells (human); test: competition with 125I-labelled mouse M291 on IL-2-activated human T cells, method of Berzofsky and Berkower
# [2] = target: human CD3 antigen on T cells (human); test: flow cytometry competition on human T cells, FITC-conjugated murine OKT3 as tracer
Ka [1] [M⁻¹],"avidity, fold compared to that of the chimeric IgG1 [2] [fold]",specific lysis of 51Cr-labeled K562 cells by retargeted T cell blasts (reverse lysis) (FcRII) [%],Molecule
1.6e+09,–,–,humanized M291 IgG1 (from UniProt P01857-1) (antibody)
–,2 to 3,< 32,chimeric OKT3 IgG2 (from UniProt P01859-1) (antibody)
1.6e+09,–,–,"mouse M291 antibody (antibody, V domains shown) VH: QVQLQQSGAELARPGASVKMSCKASGYTFISYTMHWVKQRPGQGLEWIGYINPRSGYTHYNQKLKDKATLTADKSSSSAYMQLSSLTSEDSAVYYCARSAYYDYDGFAYWGQGTLVTVSA VL: QIVLTQSPAIMSASPGEKVTMTCSASSSVSYMNWYKQKSGTSPKRWTYDTSKLASGVPARFSGSGSGTSYSLTISSMEAEDAATYYCQQWSSNPPTFGSGTKLEIK"
